Assay results from the nanobody polyreactivity screen of Harvey et al. (2022).

Assay: yeast display, Sf9 membrane polyspecificity reagent, FACS + sequencing; frameworks hold sequencing errors
How it was run: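 Genes from sorted yeast were amplified by colony PCR, read by MiSeq 2 × 250 sequencing and filtered on CDR length. These cells carried a synthetic nanobody library in Saccharomyces cerevisiae BJ5465 and were sorted by FACS into low and high (top ~1%) gates on anti-HA and streptavidin fluorescence. Polyreactivity is labelled according to the gate of origin.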

| Sequence | polyreactivity (PSR sort gate) |
| --- | --- |
| QVQLVETGGGLVQAGGSLRLSCAASGRPFHRYALGWYRQAPGKDRALGAAISRGGITYYADSVKGRFTISRDNAKNTVYLQMNSLKPEDTAVYYCAALYRYYHESSPFDYWGQGTQVTVSS | high polyreactivity |
| QVQLVETGGGLVQAGGSLRLSCAASGRTFDPNAMGWYRQAPGKERELVAAIDWTGGRTYYADSVKGRFTISRDNAKNTVYLQMNSLKPEDTAVYYCAARYYRFRSSRDYWGQGTQVTVSS | high polyreactivity |
| QVQLVETGGGLVQAGGSLRLSCAASGRTFEGNAMGWYRQAPGKERELVAAISGSGGRTYYADSVKGRFTISRDNAKYTVYLQMNSLKPEDTAVYYETLYSVYNPRRFNYWGQGTQVTVSS | high polyreactivity |
| QVQLVETGGGLVQAGGSLRLSCAASGRTFGIYAMGWYRQAPGKERELVAANTGRGGSTHYADSVKGRFTISRDNAKNTVYLQMNSLKPEDTEVYYGAADYRYNRGITSNKDYDYWGQGTQVTVSS | low polyreactivity |
| QVQLVETGGGLVQAGGSLRLSCAASGRTFVYNGMGWYRQAPGKERELVAAISGSGGSTYYADSVKGRFTISRDNAKNTVYLQMNSLKPEDTAVYYCATRQGYRLYYWGQGTQVTVSS | high polyreactivity |
| QVQLVETGGGLVQAGGSLRLSCAASGRTLWSYVMGWYIQAPGKERELVAAITSGGTTYYADSVKGRFTISRDNAKNTFYFQMNSLKPEDTAVYSCNVYTKFVYAYDYWGQGTQVTVSS | high polyreactivity |
| QVQLVETGGGLVQAGGSLRLSCAASGSIFFDYAKGWSRQAPGKERELVAAIRWSGGRTSYADSVKGRFTISRDNAKNSVYLQMNSVKPEDTAVYYCSARWNRVRYGFDYWGQGTQVTVSS | high polyreactivity |
| QVQLVETGGGLVQAGGSLRLSCAASGSIFLYYAMGWYRQAHGKERELVAAITSGGSTNYADSVKGRFTISRDNAKNTVYLQMNSLKPEDTAVYYCAARHPYRFWGQGTKVTVSS | high polyreactivity |
| QVQLVETGGGLVQAGGSLRLSCAASGSIFVTNAMGWYRQPPGKEREFVAAISSSDDSTYYADSVKGRFTISRDNAKNTVYLQMHSLKPEDTAVYYCASDWLFNIIAYDYGLDSWGQGTQVTVSS | low polyreactivity |
| QVQLVETGGGLVQAGGSLRLSCAASGSTFRYYAMGWYRQAPGTERELVAGISSNGGRTYYADSVKWRFTISRDNAKNTVYLQMNILKPEDTAVYYCNAGPYSRLYGDRDYDYWGQGTQVTVSS | high polyreactivity |
| QVQLVETGGGLVQAGGSLRLSCAASGSTFVYNAMGWYRPAPGNERELVAAITNSGSTYYADSVKGRFTISRDNAKNTVYLQMNSLKPEDTAVYDCAARSRVYWARSGYWGQGTQVTVSS | low polyreactivity |
| QVQLVETGGGLVQAGGSLRLSCAASGSTFYYNAMGWYRQAPGKERELVARITRSGGSTYADSVKGRFTISRDNAKNSVYLQMNSLKPEVTAVYYWNADAYGTPEFTSYALRYDYWGQGTQVTVSS | low polyreactivity |
| QVQLVETGGGLVQAGGSLRLSCAASGYTFASNDMVWYRQAPGKERELVAAITKGGGRTYYADSVKGRFTISRDNAKNTVYLQMNRLKPEDTAVYFCAARQLIKYDYCGQGTQVTVSS | low polyreactivity |
| QVQLVETGGGLVQAGGSLRLSCAASVRIIWGNAMGWYRQAPGTERELVAALRASGGSTHYADSVKGRFTISRDNAKKTVYFQINSLKPEDTAVYYCIAVKRVGAYWGRSFAYYYWGQGTQVTVSS | high polyreactivity |
| QVQLVETGGGLVQAGGSLRLSCAAYGSIFIGYAMGWYRQAPGKERELVAAISNSGGRTYYADSVKGRFTISRDNAKNTVYLQMNSLKPEDTEVYYCNVDYRIPYRMDYWGQGTQVTVSS | high polyreactivity |
| QVQLVETGGGLVQAGGSLRLSCADSGFIFRYYAMGRYRQAPGKERELVAAISSRGASTYYADSVKGRFTISRDNEKNTVYLQMNRLKPEDTAVYDCNARFNRASEMDYWGQGTQVTVSS | high polyreactivity |
| QVQLVETGGGLVQAGGSLRLSCAGSGSTFTSYVMGWYRQAPGKERELVAAITSSGGDTYYADSVKGRFTISRDNAKNTVYLQMNSLKPEVTAVYYCATRSYYRSSYYRNRYPYDYWGQGTQVTVSS | low polyreactivity |
| QVQLVETGGGLVQAGGSLRLSCAPSGRTFYYYAMGWYRQAPGKERELVAAISYSVGSTYYADSVKGRFTISRDNAKTTVYLQMNSLKPEDTEVYYCAASRASSSRGEYYYWGQGTLVTVSS | low polyreactivity |
| QVQLVETGGGLVQAGGSLRLSCASSGITFYRYGKGRYRQAPGKERELVAAITYNGGGTYYADSVKGRFTISRDNAKNTVYLQMNSLKPEDTAVYYCATLRPYAYPQYDSWGQGTQVTVSS | high polyreactivity |
| QVQLVETGGGLVQAGGSLRLSCASSGRTCVDNTMGWYRQEPGKESELVATITSGDSTNYEESVKGRFTISRDNAKYTVYLQMNSLKPEDTAVYYCAAVTNWYYYYTHRMEYWGQGTQVTVSS | low polyreactivity |
| QVQLVETGGGLVQAGGSLRLSCASSGSIFRAYAMGWYRQAPGNERELVAYISRSGGSTYYADSVKGRFTISRDNAKNTVYLQMNSLTQEDTAFYYCAAVFYLYSNLYGEYDYWGQGTQVTVSS | low polyreactivity |
| QVQLVETGGGLVQAGGSLRLSCDASGRTFRIYGMGWYRQAPGKERELVAAISYSTGGTYYADSVKGRFTISRDNAKNTVYLQMTSLKPEDTAVYYCAAVVYAYLYADYDYWGQGTQVTVSS | low polyreactivity |

| Sequence | polyreactivity (PSR sort gate) |
| --- | --- |
| QVQLVETGGGLVQAGGSLRLSFGASGSTFSQYGMGLYRQAPGKVRELVAAIRRSGGRTYYADSVKGRFTISLDNAKNTVYLQMNSLKPEDTAVYYCAADEYRYYFYRPGIGYDYWGQGTQVTVSS | low polyreactivity |
| QVQLVETGGGLVQAGGSLRLSSAASGITFKWNDMGCYRQAPGKEREFVAAITGSTGSTFYADSVKGRFTISRDNAKNTVYLQMNSLKPEDTAVYYCAAGPWFYYWGQGTEVTVSS | low polyreactivity |
| QVQLVETGGGLVQAGGSLRLSSAASGRIFRNYTMGWYRQAPGKERELVAAISSSGGRTYYADSVKGRFTISRDNEKNTVYLQMNSLKPEDTAVYYCNTDGPTWYPTYDYWGQGTQVTVSS | high polyreactivity |
| QVQLVETGGGLVQARGSLRLSCAASVSILYGNAMGWYRQAPGKERELVAAISRGGSTYYADSVKGRFTISRDNAKNTVYLQMNSLKPEDTAVYYCNALYTSYYRPSGMGYWGQGTQVTVSS | high polyreactivity |
| QVQLVETGGGLVQSGGSLRLSCAASGSTFTYYAMGWYRQAPGKERELVAAIDFSGTSTYYADSVKGRFTISRDNAKNTVYLQMNCLKPEDTAVYFCAASQSLYWGGAHDNGEFGYWGQGTQVTVSS | low polyreactivity |
| QVQLVETGGLLVQAGGSLRLTCAGSGLIFYYYAMGCYRQAPGKERELVATISWYGGSTYADSVKGRFTISRDNAKNTVYLQMNSLKPEDPAVYYCAARYFVYYLEVDYWGQGTQVTVSS | low polyreactivity |
| QVQLVETGGRLVQAGGSLRLSCAASGFTFHQYTMGWYRQAPGKESELVAAITGTGDTYYADSVKGRFTISRDNAKNTVNLQMNSLKPEDTAVYYCAADWVTYWYYKGFYYWGQGTQVTVSS | high polyreactivity |
| QVQLVETGGVLVQAGGSLRLSCAASGRIFFYYVMGWYRQAPGKERELVAGITRGGITNYADSVKGRLTISRDNAKNTVYLQMNSLKPEDTAVYYCKARAPSYYRYRASAAYDYWGLGTQVTVSS | high polyreactivity |
| QVQLVETGRGLFHAGGSLRLSCAASGGIFRVYAMGWYIPAPGKERELVAAISRSGSSTYYADSVKGRFTISRDNAKNTVYLQMNSLKPEDTAVYYCNAYSQYWLGNNYWGQGTQVTVSS | high polyreactivity |
| QVQLVETGRGLVQAGGSLRLSCAASGSTFGSYAMGWYRPAPGKEREFVATISRSGGRTYYAASVKGRFTISRDNAKNTVYFQMNSLKPEDTAVYYCATDRRYWIGYDYWGQGTQVTVSS | high polyreactivity |
| QVQLVETGVGLVQAGGSLRLSCAASGRIFKRNTMGWYRQAPGKEREFVASITFSGGSTNYADSVKGRFTISRDNAKNTVYLQMNSLKPEDTAVYYCAARDYHYSTYDYWGQGTQVTVSS | low polyreactivity |
| QVQLVETGVGLVQAGGSLRLSCAASGRTFTTYAMGWYRQAPGKERELVAAITGSGGSTYYADSVNGRFTISRDNAKNTVYLQMNSLKPEDTAVYDCAKGYHQYAGFYYWGQGTQVTVSS | high polyreactivity |
| QVQLVETRGGLVQAGGSLRLSCAASGPIIRYYDMGCYRQAPGTERELVSASNAAGTSTYYADSVKGRFTISRDNAKNTVYLQMNSLKPEDTAVYYCAAQPYYGGGCYCYTRNYKLNYWGQGTQVTVSS | high polyreactivity |
| QVQLVEYVELLVQAVGILSLSCAASGLTIYYYIMGWYLHAPRKEREFLAAISNSGCRPYYADSVNGRFTISRDNAKNTDYLQMNSLIPEDTPVYYCAAQSRYGGKFLYWGQGTQVTVSS | high polyreactivity |
| QVQLVGSGGGLVQAGGSLRLSCAASGRIFDKNAMGWYRQAPGKERELVAAISGGGRTYYADSVKGRFTISRDNAKNTVYLQMNSLKQEDTAVYYCNVPYYYTGGSYGYWGQGTQVTVSS | low polyreactivity |
| QVQLVHSGGGLVQAGGILRLSCAASGYTFGYYTRGWYRQAPGKERELVASIDSGGGTNYADSVKGRFSISRDNAKKTVYLQMNSLKPEDNAVYYCAAESPLYWVEDFESGWRFYYCGQGTQVTVSS | low polyreactivity |
| QVQLVHSGGGLVQEGGSLRLSCAASGSIFYSYGMGWYRQAPGKERELVAAITSSGGGTYYADSVKGRFTISRDNAKNNVYLQMNSVKAEDTAVYYCAADDRNYNYYPTFYYWGQGTQVTVSS | low polyreactivity |
| QVQLVKSGGGLVQAGGSLRLSCAASGSTFYNDMGGYIHSPGKEIELVAAISIGGSTYYADSVKGRFTISRDNANHTVYLQMSCLKPEDTAVYYCAAVWYTSRQKYDYWGQGTQVTVTS | low polyreactivity |
| QVQLVKSGGGLVQAGGSLRLTCAASGFTFFVYAMGWYRQAPGKETELVAAITSSGGSTYYADSVKGRFTISRDNAKNTVYLQMNSLKPEDTAVYYCAPDRYSYLGYPYEYEYWGQGTQVTVSS | low polyreactivity |
| QVQLVQSGGGLVQAGGSLRLSCAASGIIFYVYAMGWYRQAPGKERELVAAISRSGGRTYYADSVKGRFTISRDNPKNTVYLQMNSLKPEDTAVYYCAAVYPRQVSQVWRDDYWGQGTQVTVSS | high polyreactivity |
| QVQLVQSGGGLVQAGGSLRLSCAASGLTFYYNVMGWYRQATGKERELVAAITSGGRTYYGDSVKGRFTISRDNAKNTVYLQMNSLKPEDTAVYYCARPYSRAYDYWGQGTEVTVSS | high polyreactivity |
